This is an account of results in patent publication US20150344570A1 (published 2015).

The target of test [1] is T1, FcγRIIa H (human, UniProt P12318 34-217).
T1 construct: extracellular domain; also called FcgRIIa H; 2aH; not shown: His tag attached to the C terminus
T1 sequence (looked up): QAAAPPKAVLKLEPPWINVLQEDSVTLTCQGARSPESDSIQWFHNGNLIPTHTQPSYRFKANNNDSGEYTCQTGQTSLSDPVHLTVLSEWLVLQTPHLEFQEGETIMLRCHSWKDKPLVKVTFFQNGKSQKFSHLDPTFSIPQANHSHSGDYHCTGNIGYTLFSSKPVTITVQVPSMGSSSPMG
The test can be described thus: SPR; He/Con for FcγRIIa H divided by He/Con for FcγRIIb. On the technique in general: Surface plasmon resonance follows binding to a sensor surface in real time, without labels.

Test [2] has as its target T2, FcγRIIb (human, UniProt P31994 43-217).
T2 construct: extracellular domain; also called FcgRIIb; 2b; not shown: His tag attached to the C terminus
T2 sequence (looked up): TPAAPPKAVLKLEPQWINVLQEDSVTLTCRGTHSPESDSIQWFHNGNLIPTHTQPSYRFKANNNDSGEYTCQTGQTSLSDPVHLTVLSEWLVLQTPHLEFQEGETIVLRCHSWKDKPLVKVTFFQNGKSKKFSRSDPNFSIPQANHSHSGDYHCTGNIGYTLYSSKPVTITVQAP
The test can be described thus: SPR (Biacore), antibody captured on antigen peptide chip, FcγR as analyte; relative binding activity. The procedure:
(§1) The heterodimerized antibodies He Abs in which one of the H chains was introduced with an alteration were assayed for their binding activities to each activating FcγR and inhibitory FcγR according to the method described in Example 4. […] The activating FcγRs in FIGS. 26, 27, 28, and 29 are FcγRIa, FcγRIIa (R), FcγRIIa (H), and FcγRIIIa, respectively.
(§2) Analysis of interaction between objective antibody and the FcγR was carried out using Biacore T100 (GE Healthcare). HBS-EP+ (GE Healthcare) was used as the running buffer, and the measurement temperature was set to 25° C. Chips produced by immobilizing the antigen peptide by the amine coupling method to a Series S Sencor Chip CM5 (GE Healthcare), or alternatively, chips produced by allowing preliminarily biotinylated antigen peptides to interact with and immobilize onto a Series S Sensor Chip SA (certified) (GE Healthcare) were used. Antibodies of interest were captured onto an antigen peptide-immobilized chip, and allowed to interact to each FcγR diluted with running buffer. To regenerate and repeatedly use the chip, the antibodies captured on the chip were washed off by reacting 10 mM glycine-HCl, pH 1.5.

The target of test [3] is T1, FcγRIIa H. The test is described as above. The procedure: as §1, §2

B1: GpH7-A5/GpH7-B3 variant D265_18N/GpL16-k0 (antibody, human IgG1, kappa)
heavy 1: not shown
heavy 2: not shown
light: DIVMTQSPLSLPVTPGEPASISCQASESLVHSNRNTYLHWYLQKPGQSPQLLIYKVSNRFSGVPDRFSGSGSGTDFTLKISRVEAEDVGVYYCSQNTHVPPTFGQGTKVEIERTVAAPSVFIFPPSDEQLKSGTASVVCLLNNFYPREAKVQWKVDNALQSGNSQESVTEQDSKDSTYSLSSTLTLSKADYEKHKVYACEVTHQGLSSPVTKSFNRGEC
notes: Heterodimerized anti-glypican-3 IgG1; mutation in one H chain only; also called He Ab
On to B1, for which, in test [1], the “He_2aH/2b (IIaH/IIb)” value is 2.01 ratio. The He/Con_2b in test [2] is 6.1 % of GpH7-A5/GpH7-B3/GpL16-k0 (=100). Further, in test [3], the He/Con_2aH is 12.4 % of GpH7-A5/GpH7-B3/GpL16-k0 (=100).

B2: GpH7-A5/GpH7-B3 variant D265_20W/GpL16-k0 (antibody, human IgG1, kappa)
heavy 1: not shown
heavy 2: not shown
light: DIVMTQSPLSLPVTPGEPASISCQASESLVHSNRNTYLHWYLQKPGQSPQLLIYKVSNRFSGVPDRFSGSGSGTDFTLKISRVEAEDVGVYYCSQNTHVPPTFGQGTKVEIERTVAAPSVFIFPPSDEQLKSGTASVVCLLNNFYPREAKVQWKVDNALQSGNSQESVTEQDSKDSTYSLSSTLTLSKADYEKHKVYACEVTHQGLSSPVTKSFNRGEC
notes: as for B1
Regarding B2, the “He_2aH/2b (IIaH/IIb)” value in test [1] was determined as 2.86 ratio. Moreover, the He/Con_2b in test [2] is 1.1 % of GpH7-A5/GpH7-B3/GpL16-k0 (=100). In addition, the He/Con_2aH in test [3] was 3.2 % of GpH7-A5/GpH7-B3/GpL16-k0 (=100).

B3: GpH7-A5/GpH7-B3 variant H268_08L/GpL16-k0 (antibody, human IgG1, kappa)
heavy 1: not shown
heavy 2: not shown
light: DIVMTQSPLSLPVTPGEPASISCQASESLVHSNRNTYLHWYLQKPGQSPQLLIYKVSNRFSGVPDRFSGSGSGTDFTLKISRVEAEDVGVYYCSQNTHVPPTFGQGTKVEIERTVAAPSVFIFPPSDEQLKSGTASVVCLLNNFYPREAKVQWKVDNALQSGNSQESVTEQDSKDSTYSLSSTLTLSKADYEKHKVYACEVTHQGLSSPVTKSFNRGEC
notes: as for B1
Regarding B3, the “He_2aH/2b (IIaH/IIb)” value in test [1] was 1.25 ratio. The He/Con_2b in test [2] is 67.8 % of GpH7-A5/GpH7-B3/GpL16-k0 (=100). Moreover, the He/Con_2aH in test [3] was 85 % of GpH7-A5/GpH7-B3/GpL16-k0 (=100).

B4: GpH7-A5/GpH7-B3 variant G236_16H/GpL16-k0 (antibody, human IgG1, kappa)
heavy 1: not shown
heavy 2: not shown
light: DIVMTQSPLSLPVTPGEPASISCQASESLVHSNRNTYLHWYLQKPGQSPQLLIYKVSNRFSGVPDRFSGSGSGTDFTLKISRVEAEDVGVYYCSQNTHVPPTFGQGTKVEIERTVAAPSVFIFPPSDEQLKSGTASVVCLLNNFYPREAKVQWKVDNALQSGNSQESVTEQDSKDSTYSLSSTLTLSKADYEKHKVYACEVTHQGLSSPVTKSFNRGEC
notes: as for B1
For the molecule B4, the “He_2aH/2b (IIaH/IIb)” value in test [1] was determined as 3.51 ratio. The He/Con_2b in test [2] is 27.9 % of GpH7-A5/GpH7-B3/GpL16-k0 (=100). The He/Con_2aH in test [3] is 98.2 % of GpH7-A5/GpH7-B3/GpL16-k0 (=100).

B5: GpH7-A5/GpH7-B3 variant D265_16H/GpL16-k0 (antibody, human IgG1, kappa)
heavy 1: not shown
heavy 2: not shown
light: DIVMTQSPLSLPVTPGEPASISCQASESLVHSNRNTYLHWYLQKPGQSPQLLIYKVSNRFSGVPDRFSGSGSGTDFTLKISRVEAEDVGVYYCSQNTHVPPTFGQGTKVEIERTVAAPSVFIFPPSDEQLKSGTASVVCLLNNFYPREAKVQWKVDNALQSGNSQESVTEQDSKDSTYSLSSTLTLSKADYEKHKVYACEVTHQGLSSPVTKSFNRGEC
notes: as for B1
Take B5: the “He_2aH/2b (IIaH/IIb)” value in test [1] was found to be 1.27 ratio. Moreover, the He/Con_2b in test [2] is 38.3 % of GpH7-A5/GpH7-B3/GpL16-k0 (=100). Moreover, the He/Con_2aH in test [3] was 48.6 % of GpH7-A5/GpH7-B3/GpL16-k0 (=100).

B6: GpH7-A5/GpH7-B3 variant H268_06M/GpL16-k0 (antibody, human IgG1, kappa)
heavy 1: not shown
heavy 2: not shown
light: DIVMTQSPLSLPVTPGEPASISCQASESLVHSNRNTYLHWYLQKPGQSPQLLIYKVSNRFSGVPDRFSGSGSGTDFTLKISRVEAEDVGVYYCSQNTHVPPTFGQGTKVEIERTVAAPSVFIFPPSDEQLKSGTASVVCLLNNFYPREAKVQWKVDNALQSGNSQESVTEQDSKDSTYSLSSTLTLSKADYEKHKVYACEVTHQGLSSPVTKSFNRGEC
notes: as for B1
B6: the “He_2aH/2b (IIaH/IIb)” value in test [1] is 1.29 ratio. The He/Con_2b in test [2] was 65.7 % of GpH7-A5/GpH7-B3/GpL16-k0 (=100). In addition, in test [3], the He/Con_2aH is 84.8 % of GpH7-A5/GpH7-B3/GpL16-k0 (=100).

B7: GpH7-A5/GpH7-B3 variant S239_11K/GpL16-k0 (antibody, human IgG1, kappa)
heavy 1: not shown
heavy 2: not shown
light: DIVMTQSPLSLPVTPGEPASISCQASESLVHSNRNTYLHWYLQKPGQSPQLLIYKVSNRFSGVPDRFSGSGSGTDFTLKISRVEAEDVGVYYCSQNTHVPPTFGQGTKVEIERTVAAPSVFIFPPSDEQLKSGTASVVCLLNNFYPREAKVQWKVDNALQSGNSQESVTEQDSKDSTYSLSSTLTLSKADYEKHKVYACEVTHQGLSSPVTKSFNRGEC
notes: as for B1
Take B7: the “He_2aH/2b (IIaH/IIb)” value in test [1] turned out to be 1.94 ratio. Further, the He/Con_2b in test [2] is 24.7 % of GpH7-A5/GpH7-B3/GpL16-k0 (=100). The He/Con_2aH in test [3] is 48.1 % of GpH7-A5/GpH7-B3/GpL16-k0 (=100).

B8: GpH7-A5/GpH7-B3 variant D265_14T/GpL16-k0 (antibody, human IgG1, kappa)
heavy 1: not shown
heavy 2: not shown
light: DIVMTQSPLSLPVTPGEPASISCQASESLVHSNRNTYLHWYLQKPGQSPQLLIYKVSNRFSGVPDRFSGSGSGTDFTLKISRVEAEDVGVYYCSQNTHVPPTFGQGTKVEIERTVAAPSVFIFPPSDEQLKSGTASVVCLLNNFYPREAKVQWKVDNALQSGNSQESVTEQDSKDSTYSLSSTLTLSKADYEKHKVYACEVTHQGLSSPVTKSFNRGEC
notes: as for B1
For B8, the “He_2aH/2b (IIaH/IIb)” value in test [1] was 1.5 ratio. Also, in test [2], the He/Con_2b is 16 % of GpH7-A5/GpH7-B3/GpL16-k0 (=100). In test [3], the He/Con_2aH was 24.1 % of GpH7-A5/GpH7-B3/GpL16-k0 (=100).
